System: peptide library, one residue held at a place counted from the Y acceptor
Assay: relative phosphorylation of the sub-library (ratio to the mean residue at this position); higher = residue favoured
Method in brief: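 Every value reflects phosphorylation relative to the mean randomized residue. The sum of the 18 randomized residues, or 16 in the Ser/Thr-free library, served to normalize intensities at each position, which were then multiplied by that number. Intensities came from phosphorimaging with ImageQuant of biotinylated Tyr-centred peptides captured on streptavidin membranes after 90 min with purified recombinant kinases and 50 μM ATP plus γ-32P-ATP.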

Sequence of EPHA4, construct: aa610-887, human (P54764 610-887, looked up): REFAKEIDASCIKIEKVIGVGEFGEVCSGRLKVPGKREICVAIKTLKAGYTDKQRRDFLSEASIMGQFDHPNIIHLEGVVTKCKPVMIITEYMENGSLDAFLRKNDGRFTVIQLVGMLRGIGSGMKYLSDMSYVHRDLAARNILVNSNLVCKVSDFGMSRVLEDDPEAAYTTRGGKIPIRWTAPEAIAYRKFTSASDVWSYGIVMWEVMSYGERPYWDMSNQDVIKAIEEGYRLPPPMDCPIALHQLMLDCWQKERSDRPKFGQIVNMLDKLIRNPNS
Sequence of EPHA5, construct: aa662-948, human (P54756 662-948, looked up): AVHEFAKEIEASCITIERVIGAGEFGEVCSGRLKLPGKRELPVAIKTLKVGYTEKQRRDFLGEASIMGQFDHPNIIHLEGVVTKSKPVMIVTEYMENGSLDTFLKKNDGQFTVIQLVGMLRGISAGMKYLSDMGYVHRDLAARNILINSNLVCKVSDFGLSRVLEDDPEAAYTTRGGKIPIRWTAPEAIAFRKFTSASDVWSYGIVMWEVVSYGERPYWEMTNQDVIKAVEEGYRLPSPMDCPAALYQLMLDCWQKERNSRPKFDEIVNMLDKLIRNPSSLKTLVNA
Sequence of EPHA3, construct: aa571-end, human (P29320 571-983, looked up): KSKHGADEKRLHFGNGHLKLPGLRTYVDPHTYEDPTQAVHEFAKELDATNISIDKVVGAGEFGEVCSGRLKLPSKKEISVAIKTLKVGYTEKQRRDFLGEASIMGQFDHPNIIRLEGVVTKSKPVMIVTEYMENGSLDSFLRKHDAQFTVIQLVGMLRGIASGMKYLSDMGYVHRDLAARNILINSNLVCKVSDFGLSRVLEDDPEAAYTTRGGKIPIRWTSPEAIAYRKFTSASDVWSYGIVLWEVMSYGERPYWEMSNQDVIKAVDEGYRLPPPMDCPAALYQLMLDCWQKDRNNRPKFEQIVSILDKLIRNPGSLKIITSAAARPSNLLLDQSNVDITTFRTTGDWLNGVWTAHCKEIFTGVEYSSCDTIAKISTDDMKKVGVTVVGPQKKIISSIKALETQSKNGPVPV

EPHA3, construct: aa571-end, human (from UniProt P29320)
relative phosphorylation
Details	at +1	at +2	at +3	at +4	at +5	at -1	at -2	at -3	at -4	at -5
A fixed	1.63	0.63	0.711	0.794	1.05	0.536	1.11	0.827	1.03	0.924
D fixed	1.1	1.73	0.574	1.03	1.04	2.68	1.16	1.07	1.06	0.949
E fixed	1.89	1.71	0.544	1.06	0.941	1.19	1.04	1.17	1.05	0.848
F fixed	0.91	1.44	1.4	1.16	1.42	0.997	0.863	1.32	1.3	1.15
G fixed	0.902	0.424	0.526	1.14	0.981	0.389	1.04	0.853	1.01	1.02
H fixed	0.53	0.717	0.69	0.998	0.756	0.534	0.804	0.959	0.859	0.996
I fixed	1.18	1.02	2.34	0.801	0.925	1.83	0.939	1.11	0.974	0.999
K fixed	0.407	0.47	0.403	0.685	0.653	0.382	0.899	0.674	0.918	1.01
L fixed	0.982	0.908	1.62	0.754	1.19	1.75	1.13	0.995	1.34	1.11
M fixed	1.17	0.915	0.989	0.951	0.885	0.827	0.747	0.976	0.837	0.891
N fixed	0.556	1.05	0.514	0.809	0.774	2.18	0.942	1.06	0.817	1.03
P fixed	0.353	0.567	1.42	1.25	1.52	0.44	1.15	1.02	1.06	1.09
Q fixed	1.28	0.789	0.775	0.997	0.8	0.567	1.25	0.894	1.09	1.02
R fixed	0.473	0.601	0.505	0.809	0.648	0.411	0.842	0.806	0.847	0.982
S fixed	0.811	0.685	0.63	0.877	1.06	0.525	1.28	0.902	0.785	0.836
T fixed	0.694	0.742	0.589	0.866	0.841	0.867	0.805	0.885	0.653	0.774
V fixed	1.59	0.905	1.85	0.779	1.04	1.04	1.04	0.994	0.903	0.836
W fixed	1.54	2.7	1.92	2.23	1.47	0.849	0.966	1.48	1.48	1.53
pThr fixed	1.53	2.12	0.736	1.05	0.946	1.88	1.04	0.915	0.851	0.854
pTyr fixed	1.9	7.49	1.44	1.89	1.07	2.88	1.1	1.22	1.13	1.15

EPHA4, construct: aa610-887, human (from UniProt P54764)
relative phosphorylation
Details	at +1	at +2	at +3	at +4	at +5	at -1	at -2	at -3	at -4	at -5
A fixed	1.32	0.737	0.831	0.822	0.978	0.712	1.1	0.763	1.03	1.01
D fixed	1.31	2.05	0.748	1.15	1.18	2.37	1.27	1.2	1.28	1.11
E fixed	3.45	2.28	0.728	1.52	1.29	1.52	1.41	1.34	1.23	1.02
F fixed	0.73	1.14	1.22	0.976	1.25	0.885	0.778	1.24	1.16	1.08
G fixed	0.817	0.564	0.695	0.991	1.1	0.533	0.929	0.804	1.11	1.02
H fixed	0.631	0.779	0.833	1.07	0.933	0.672	0.865	0.873	0.867	0.959
I fixed	0.966	0.952	2.01	0.831	0.904	1.72	0.931	1.12	0.962	0.981
K fixed	0.473	0.527	0.525	0.679	0.67	0.513	0.825	0.594	0.836	0.965
L fixed	0.782	0.829	1.35	0.859	1.01	1.45	1.06	0.976	1.01	1.03
M fixed	1.06	0.86	1.13	0.923	0.938	0.802	0.777	0.851	0.902	1.01
N fixed	0.6	1.09	0.694	0.883	0.901	1.57	1.05	0.901	0.896	1
P fixed	0.509	0.757	1.5	1.25	1.44	0.641	1.42	0.94	1.12	1.05
Q fixed	1.02	0.797	0.708	0.909	0.82	0.638	1.07	0.753	1.04	0.95
R fixed	0.505	0.624	0.588	0.764	0.727	0.555	0.849	0.649	0.834	0.98
S fixed	0.757	0.756	0.685	0.897	0.945	0.689	1.1	0.851	0.919	0.921
T fixed	0.74	0.785	0.733	0.881	0.922	0.935	0.834	1.87	0.815	0.854
V fixed	1.38	0.997	1.59	0.84	0.879	1.08	0.95	0.959	0.861	0.918
W fixed	0.948	1.48	1.45	1.76	1.12	0.718	0.79	1.31	1.13	1.14
pThr fixed	1.73	2.97	0.917	1.23	1.13	2.06	1.1	0.813	0.997	0.912
pTyr fixed	1.87	8.24	1.28	1.75	1.33	2.22	1.09	1.01	1.09	1.07

EPHA5, construct: aa662-948, human (from UniProt P54756)
relative phosphorylation
Details	at +1	at +2	at +3	at +4	at +5	at -1	at -2	at -3	at -4	at -5
A fixed	1.5	0.555	0.644	0.75	1	0.44	1.06	0.741	1.03	0.879
D fixed	1.25	1.88	0.493	1.3	1.25	2.92	1.34	1.4	1.22	1.11
E fixed	3.4	2.46	0.463	1.35	1.27	1.59	1.56	1.74	1.5	1.07
F fixed	0.713	1.41	1.41	1.07	1.01	1.03	0.671	1.35	1.11	1.06
G fixed	0.825	0.275	0.426	1.21	1.2	0.215	1.14	0.85	1.18	1.14
H fixed	0.529	0.834	0.862	1.2	0.903	0.651	0.89	1.03	1.02	1.08
I fixed	1.05	0.877	2.62	0.716	0.778	1.83	0.725	0.845	0.83	0.973
K fixed	0.174	0.329	0.218	0.638	0.64	0.203	0.779	0.604	0.778	0.921
L fixed	0.847	0.869	1.85	0.707	0.916	1.74	0.789	0.877	1	0.983
M fixed	1.53	0.976	1.37	0.965	0.97	0.815	0.604	0.935	0.891	1.02
N fixed	0.48	1.18	0.477	0.805	0.906	2.59	1.28	1.12	0.966	1.11
P fixed	0.144	0.481	1.39	1.19	1.53	0.333	1.21	0.953	1.16	0.983
Q fixed	1.31	0.857	0.867	1.01	0.961	0.465	1.23	0.966	1.2	1.18
R fixed	0.224	0.47	0.35	0.832	0.763	0.232	0.883	0.751	0.885	0.968
S fixed	0.756	0.622	0.514	0.925	1.04	0.437	1.39	0.868	0.749	0.822
T fixed	0.62	0.772	0.563	0.937	0.859	0.924	0.885	0.893	0.64	0.824
V fixed	1.5	0.912	1.95	0.729	0.802	0.932	0.829	0.806	0.776	0.757
W fixed	1.15	2.25	1.52	1.68	1.2	0.662	0.729	1.29	1.05	1.12
pThr fixed	1.77	2.65	0.559	1.37	1.06	1.87	1.13	0.996	0.952	0.917
pTyr fixed	2.61	6.1	1.08	1.72	1.61	2.82	1.52	1.25	1.29	1.15
